Reference: patent US20140199302A1 (GENERAL HOSPITAL, published 2014)

Columns and labels:
[1] = molecular target: T1, soluble human hemojuvelin with a HIS-tag (HJV.His) (human, UniProt Q6ZVN8 36-400, limits assumed); experiment: Biacore SPR, HJV.His in solution over human BMP6 immobilized on a CM5 chip by amine coupling; 1:1 binding fit (Chi2 9.32 printed beside it)
T1 construct: also called monomeric HJV.His; not shown: HIS-tag
T1 sequence (looked up): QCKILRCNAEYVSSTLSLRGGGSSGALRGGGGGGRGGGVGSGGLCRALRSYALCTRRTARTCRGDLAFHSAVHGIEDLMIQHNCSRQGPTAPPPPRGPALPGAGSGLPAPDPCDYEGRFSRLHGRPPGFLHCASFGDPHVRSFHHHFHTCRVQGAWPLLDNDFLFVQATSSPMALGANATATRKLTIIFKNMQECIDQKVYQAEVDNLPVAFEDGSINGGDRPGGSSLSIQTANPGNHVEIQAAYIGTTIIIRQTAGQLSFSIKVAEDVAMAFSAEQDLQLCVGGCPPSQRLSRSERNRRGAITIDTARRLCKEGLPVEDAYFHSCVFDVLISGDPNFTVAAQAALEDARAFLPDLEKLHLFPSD

[2] = molecular target: T1, soluble human hemojuvelin with a …; experiment: SPR (Biacore), human BMP6 amine-coupled on CM5 chip, one-site univalent fit model; monomeric HJV.His; one-site univalent fit

B1: human BMP6 (ligand, UniProt P22004 382-513, looked up)
chain: QQSRNRSTQSQDVARVSSASDYNSSELKTACRKHELYVSFQDLGWQDWIIAPKGYAANYCDGECSFPLNAHMNATNHAIVQTLVHLMNPEYVPKPCCAPTKLNAISVLYFDDNSNVILKKYRNMVVRACGCH
notes: also called bone morphogenic protein-6
Binder B1 has a Kd [1] of 36 nM and a Kd [2] of about 33 nM.
